Measurements taken from the Immune Epitope Database (IEDB).

Experiments:
Assay in all cases: IEDB peptide-MHC binding, purified MHC/direct/fluorescence; filed as Kd, often an IC50 or EC50 that approximates it; ≥ and ≤ were set here for values at or beyond the usual limits of such assays
Conditions in all cases: source organism: Lyssavirus rabies
HLA-A*02:01 = target: HLA-A*02:01
HLA-B*15:17 = target: HLA-B*15:17
HLA-A*02:11 = target: HLA-A*02:11
HLA-B*39:01 = target: HLA-B*39:01
HLA-B*51:01 = target: HLA-B*51:01
HLA-A*03:01 = target: HLA-A*03:01
HLA-C*03:03 = target: HLA-C*03:03
HLA-B*18:01 = target: HLA-B*18:01
HLA-A*23:01 = target: HLA-A*23:01

Measured: Kd

YLDNVGVHI
≥ 20 µM: all assays above
